Experimental data as given in US20260231954A1, “PESTICIDAL ENZYMES FOR USE ON NEMATODES, INSECTS, AND MOLLUSKS” (priority 2023, published 2026).

Tests used:
[1] = tested on: soybean cyst nematode (SCN, Heterodera glycines); assay: Soybean cyst nematode reproduction on soybean after seed treatment, controlled environment (cysts per gram of root tissue or per plant); format: in vivo; conditions: for % Comparison to Control (figure in parentheses): change vs base control; for Average cysts per g of root tissue: soybean 2830E3
[2] = tested on: Diamondback moth (Plutella xylostella); assay: Diet-surface overlay (DSO) bioassay on Diamondback moth; format: in vivo; conditions: 7 days
Method: (§1) Diet-surface overlay bioassays are conducted with artificial diet mixes without antibiotics in 1.5 cm^2 cell bioassay trays(s). Artificial diets are commercially available from Southland Products Inc. Diets were prepared by dispersing 0.5 mL of molten diet to each 1.5 cm^2 cell. After solidification, 0.1 mL enzyme treatments were dispersed on top of diet in each cell and the tray was gently rocked in an orbital shaker to spread the liquid uniformly over the diet surface. Trays were placed under clean airflow until the surface of each cell was uniformly dried. One or two 16-cell sections were used per treatment (the number in larvae treated was 16 or 32).
(§2) One healthy first instar larva was placed into each treatment cell, each 16-cell section was covered with a re-sealable lid and incubated at 27° C. and light-dark period of 16:8 hrs. After 7 days, and according to the species, the number of individuals in the following developmental categories was recorded.
(§3) Diamondback moth (Plutella xylostella): Dead Larva (lack of movement), Larva Stage I (≤50% relative size), Larva Stage II (100% relative size, full size), Early Pupa (light green color), Late Pupa (light-dark brown color), and Adult.
(§4) Negative/untreated controls were treated with filtered water and positive controls were treated with lethal doses of Bacillus thuringiensis subsp. Kurstaki (Btk) spores at 1000 ppm.

[3] = tested on: Btk resistant Diamondback moth; assay: Diet-surface overlay (DSO) bioassay on Btk resistant Diamondback moth; format: in vivo, Plutella xylostella; conditions: 7 days
Method: as §1, §2, §3, §4
However, both neutral proteases reduced the number of individuals reaching adult stage.
The effect of lipase (10× enzyme rate) and free lipases were tested on a Diamondback Moth Btk resistant strain. Free Lipases from Burkholderia cepacia (Bc) and Pseudomonas fluorescens (Pf) were tested along with Lipase (SEQ ID NO: 76) and the results are shown below in Table 45.

[4] = tested on: SCN juveniles (SCN HG type 1.2.5.7, race 2); assay: In-vitro plate assay of SCN juvenile viability (difference in percent death); format: in vivo; conditions: Table 32, 40 μL per well of each treatment, water only 4%
Method: (§5) SCN eggs were obtained from SCN HG type 1.2.5.7, race 2. Eggs were rinsed 4 times with sterile water. Eggs were transferred to a 6-well plate and resuspended in 5 mL of 3 mM ZnSO4. The plate was sealed with parafilm, covered with aluminum foil to prevent light from entering the plate, and placed in a plate growth chamber at 25° C. and 80% relative humidity. After 6-7 days of incubation, an estimate of hatched SCN juveniles was obtained from the well to determine the overall number of juveniles per 10 μL. The concentration of the hatchery solution was adjusted until it consisted of 20-30 juveniles per 10 μL.
Potato dextrose agar media containing chloramphenicol and chlortetracycline was prepared and added to sterile twenty-four-well cell culture plates (1 mL per well). The plates were divided according to the pre-determined N-value for each treatment (N=12-24). Each treatment being tested was added to the agar surface within each well at a rate of 40 μL per well. Without allowing the treatments to dry, 10 μL of the prepared nematode mixture was added to the agar surface within each well.
To quantify the treatments' effects on nematode viability, the nematodes were examined under a dissecting microscope at 20× magnification. Initial (TO) values for the number of live juveniles, number of dead juveniles and total number of juveniles were recorded immediately after preparation of each well. The plates were then wrapped in parafilm around the open edge, encased in aluminum foil, and placed in secondary containment. The secondary containment was placed in a plant growth chamber at 25° C. and 80% relative humidity. At approximately 24 hours post addition of juveniles, the plates were evaluated, and the number of live juveniles, dead juveniles and total number of juveniles were recorded (T24).
The difference in percent death at T0 vs T24 was calculated by subtracting the percent dead at TO [(#dead juveniles/total #juveniles)×100] from the percent dead at T24 [(#dead juveniles/#total juveniles originally present)×100]. […] If the ANOVA indicated a significant difference existed among treatments, Tukey's HSD post hoc test was used to perform a pairwise contrast between each set of treatments. Different letters denote statistically significant results at P<0.05.
as §5, with “from” for “from SCN”, “rinsed four” for “rinsed 4”, “and 80-90%” for “and 80%”, “from each” for “from the”
Potato dextrose agar media containing chloramphenicol and chlortetracycline was prepared and added to sterile twenty-four-well cell culture plates (1 mL per well). The plates were divided according to the pre-determined N-value for each treatment (N=24). […]
To quantify the treatments' effects on nematode viability, the nematodes were examined under a dissecting microscope at 20× magnification. Initial (TO) values for the number of live juveniles, number of dead juveniles and total number of juveniles were recorded. […]

[5] = Table 44, number of individuals, n = 16
[6] = Table 45, number of individuals, n = 32

B1: Collagenase B (SEQ ID NO: 208): Bacillus pumulis Collagenase B (ColB) (protein, listed as Bacillus pumulis, listed as Bacillus pumilus)
chain: IVNGKRVITKKPELLAPAGNLEKLKIAVHYGADAVFIGGQEYGLRSNADNFTIEEIAEGVEFAKKYGAKIYVTTNIFAHNENMDGLEDYLKALGDANVAGIIVADPLIIETCRRVAPNVEVHLSTQQSLSNWKAVQFWKEEGLDRVVLARETSALEIREMKEKVDIEIESFIHGAMCIAYSGRCVLSNHMTARDSNRGGCCQSCRWDYDLYQTDGANAVALYGEEDAPFAMSPKDLKLIESIPKMIEMGIDSLKIEGRMKSIHYVATVVSVYRKVIDAYCADPENFVIQKEWLEELDKCANRDTATAFFEGTPGYEEQMFGEHAKKTTYDFVGLVLNYDEDTQMVTLQQRNFFKKGDEVEFFGPEIENFTHTIETIWDEDGNELDAARHPLQIVKFKLDKKIYPSNMMRKGK
modifications: Collagenase B (ColB)
% Comparison to Control (figure in parentheses) ([1]; Table 22): −85%
Average cysts per g of root tissue ([1]; Table 22, free enzyme seed treatment): 70.9 cysts per g of root tissue

B2: Lipase (SEQ ID NO: 76): Recombinant lipase from Bacillus thuringiensis; Bacillus thuringiensis Lipase (Lip1) (protein, listed as Bacillus thuringiensis)
chain: MRLMRRCVALLIVFFIMAPMISTNVRAGVVKELKTGFPDQEVFTPGEWFLGQKPANYDENKPPILFVQGRNGNADSWYGKTVYHDINDMYDYALKAGYQTVFIQLYDAAGKGSASQWDNGKLLAQKLEEIYNHFGKKVNIVAHSKGGIDTQAALVGYGANRFVGNVITLATPHHGSNLADLSYSWWAGWLASILGQKDDGTYSLQMGEMAKFRSTIDNNPAAKLNRYYTVTGTSWGPVFSALSMGGLYLSSYGSNDGLVNECSAKLPYGTHLFTDSRFDHDNIRKGSAVFARIEPYLRTANVPVPALVASSTSSNENIEQLNTTSNQSILGGELPQNQWIEQTVAVDKKAEGIVSILTASSDVEVQMISPKGKVYTNKDSVITTGEGESFFGGATIRTFKFDKMDVGEWKVKMMTKQSKDAYLVVSDYKTGAPFVLQMPTKVKANKSEYKLKKSPVAPEMKGDLSITVRVVNKEGKLVSEFNELQNVNNNTFTGALKNIKQPGVYNVTMDIKGMNKEGKSYSRTIVKSVYVEK
modifications: Lipase (Lip1 H192)
Effect on survival and development of Diamondback moth (in words) ([2]; DSO bioassay): delayed larva-pupa development
Dead Larva ([2]; Table 44, lipases, number of individuals, n = 16): 0
Adult [2, 5]: 0
Early Pupa [2, 5]: 3
Larva Stage I [2, 5]: 0
Larva Stage II [2, 5]: 0
Late Pupa [2, 5]: 13
Effect on survival and development of Btk resistant Diamondback moth (in words) ([3]; DSO bioassay): clear delay of larva-pupa development
Dead Larva ([3]; Table 45, lipases, number of individuals, n = 32, Btk resistant strain per text): 1
Adult [3, 6]: 0
Early Pupa [3, 6]: 10
Larva Stage I [3, 6]: 9
Larva Stage II [3, 6]: 12
Late Pupa [3, 6]: 0

B3: Pseudomonas sp. esterase (SEQ ID NO: 248): Pseudomonas sp. Esterase (protein, listed as Pseudomonas sp.)
chain: MTEPLILQPVKPADACVIWLHGLGADRYDFLPVAEALQEILLSTRFVLPQAPTRPVTINGGYAMPSWYDIKAMSPARAIDRDELEASADRIIELIEEQRSSGIDASRIFLAGFSQGGAVVYHTAFLKWQGPLGGVLALSTYAPTFSDELELSASQQRIPVLSLHGQFDNVVQNSMGRTAYEYLKAHGVTVTWQEYPMEHEVLPEEIRDIGTWLSERLR
% Comparison to Control (figure in parentheses) ([1]; Table 16): −10%
Average cysts per g of root tissue ([1]; Table 16, free enzyme or 4x concentrate seed treatment): 220.2 cysts per g of root tissue
Difference in Percent Death of Nematodes for 0 to 24 Hours [4]: 22%
Difference in Percent Death of Nematodes for 0 to 24 Hours ([4]; listed as Pseudomonas sp. esterase free enzyme (SEQ ID NO: 248)): 22%

B4: Bacillus thuringiensis Lipase 2 (SEQ ID NO: 251): Bacillus thuringiensis Lipase 2 (protein, listed as Bacillus thuringiensis)
chain: EVVKELGKGFPDTEVFTPGEWFLGQKPANYDENKPPILFVQGRNGNADSWYGKTVYHDINDMYDYALKAGYQTVFIQLYDAAGKGSASQWDNGKLLAQKLEEIYNYFGKKVNIVAHSKGGIDTQAALVEYGANRFVGNVITLATPHHGSNLADLSYSWWAGWLASILGQKDDGTYSLQIGEMAKFRSIIDNNPAAKLNRYYTATGTSWGPTFSALSMGGLYLSSYGSNDGLVNEWSAKLSYGTHLFTDSRFDHDNIRKGSAVFARIEPYLRTTNVGLPALVASSTSSNEDLEQLNTTSNQNILGGELPQNQWIEQSISVDKKAEGIVSVLTASSDVEVQMVSPKGKIYANKDSAITTGEGESFFNRATIRTFKFDKLEVGEWKIKMMAKQSKDAYLVVSDYKDDAPFVLRMPTKVKINKPEYKLKKSPVAPEMKGDLSITVRVVNKEGKLVSEFNELQNVNTNTFTGALKDIKQPGVYNVTMDIKGMNKEGKPYNRTIVKSVYVEK
% Comparison to Control (figure in parentheses) ([1]; Table 20): −43%
Average cysts per g of root tissue ([1]; Table 20, free enzyme seed treatment): 264.3 cysts per g of root tissue
